± gives the uncertainty stated by the source.
Assay: self-splicing fitness, log relative to wild type (ln ratio); higher = more splicing; Tetrahymena group I intron in knt gene, E. coli kanamycin selection, DiMSum; sequences stand for … in CUCUCU…GGAGGGAAAAGUUAUCAGGCAUGCACCUGGUAGCUAGUCUUUAAACCAAUAGAUUGCAUCGGUUUAAAAGGCAAGACCGUCAAAUUGCGGGAAAGGGGUCAACAGCCGUUCAGUACCAAGUCUCAGGGGAAACUUUGAGAUGGCCUUGCAAAGGGUAUGGUAAUAAGCUGACGGACAUGGUCCUAACCACGCAGCCAAGUCCUAAGUCAACAGAUCUUCUGUUGAUAUGGAUGCAGUUCACAGACUAAAUGUCGGUCGGGGAAGAUGUAUUCUUCUCAUAAGAUAUAGUCGGACCUCUCCUUAAUGGGAGCUAGCGGAUGAAGUGAUGCAACACUGGAGCCGCUGGGAACUAAUUUGUAUGCGAAAGUAUAUUGAUUAGUUUUGGAGUACUCGUGGUCG
Outline: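 Pooled colonies went to amplicon sequencing on an Illumina HiSeq 2500 after six replicate transformations. The plates were LB agar with 100 μg/mL carbenicillin, 50 μM IPTG and 0.2% rhamnose, with or without 25 μg/mL kanamycin, incubated overnight at 37°C or 30°C. The E. coli BL21(DE3) library had all eight P1ex-region intron nucleotides randomised, the intron placed in the knt kanamycin-resistance gene on pET-22b(+). DiMSum fitness is the error-weighted combination of replicate fold changes, kanamycin against none, normalised to wild type.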

Sequence | self-splicing fitness (ln) (37 °C) | self-splicing fitness (ln) (30 °C)
CACGAGCAAUAUUACGGCCA | -2.79 ± 0.32 | –
CGCCAGCAAUAUUACGGGUG | -2.58 ± 0.12 | -4.13 ± 0.14
GUUGAGCAAUAUUACGGUAC | -1.79 ± 0.38 | -3.45 ± 0.34
GCUUAGCAAUAUUACGAAAC | -0.448 ± 0.24 | -1.22 ± 0.16
AGGUAGCAAUAUUACGACUC | -0.19 ± 0.037 | -0.66 ± 0.018
CGUCAGCAAUAUUACGGAGA | -2.76 ± 0.27 | -3.44 ± 0.29
CAGGAGCAAUAUUACGUUGA | -3.85 ± 0.42 | -3.22 ± 0.37
GGGGAGCAAUAUUACGUACG | -0.525 ± 0.18 | -1.76 ± 0.16
UGGAAGCAAUAUUACGGUCU | 0.0438 ± 0.16 | -1.94 ± 0.14
ACUCAGCAAUAUUACGCUGC | -2.24 ± 0.29 | -3.36 ± 0.3
UUGAAGCAAUAUUACGGGUG | -0.446 ± 0.066 | -0.54 ± 0.048
ACACAGCAAUAUUACGGUCG | -0.473 ± 0.076 | -1.09 ± 0.051
GAACAGCAAUAUUACGCCGG | -0.838 ± 0.24 | -1.56 ± 0.18
AUUGAGCAAUAUUACGCUUU | -1.29 ± 0.26 | -2.92 ± 0.24
ACAAAGCAAUAUUACGUGCA | -0.154 ± 0.074 | -0.78 ± 0.057
CCCGAGCAAUAUUACGCAGU | -2.64 ± 0.18 | -2.82 ± 0.16
GACGAGCAAUAUUACGAUCG | -2.03 ± 0.19 | -2.3 ± 0.23
GAGAAGCAAUAUUACGAUGG | -1.69 ± 0.18 | -2.74 ± 0.16
GGGCAGCAAUAUUACGCCCA | -1.26 ± 0.32 | -2.18 ± 0.48
CUACAGCAAUAUUACGUGUU | -2.94 ± 0.15 | -3.08 ± 0.16
GGUUAGCAAUAUUACGGGAG | -2.55 ± 0.25 | -3.49 ± 0.24
ACACAGCAAUAUUACGGUAG | -3.1 ± 0.15 | -4 ± 0.17
UAUCAGCAAUAUUACGUUUU | -1.4 ± 0.085 | -2.74 ± 0.084
UCGAAGCAAUAUUACGUGCA | -0.214 ± 0.095 | -0.485 ± 0.096

Sequence | self-splicing fitness (ln) (37 °C) | self-splicing fitness (ln) (30 °C)
GAAUAGCAAUAUUACGUAGA | -1.55 ± 0.11 | -3.35 ± 0.15
GACUAGCAAUAUUACGCGUU | -3.83 ± 0.39 | –
UACGAGCAAUAUUACGGGUU | -3.21 ± 0.23 | -2.88 ± 0.14
ACUGAGCAAUAUUACGGACC | -1.14 ± 0.26 | -2.23 ± 0.26
UGUAAGCAAUAUUACGCGUC | -2.65 ± 0.32 | -3.31 ± 0.25
UAACAGCAAUAUUACGUGAG | -0.471 ± 0.071 | -0.729 ± 0.046
AGCCAGCAAUAUUACGGCGU | -1.44 ± 0.12 | -1.61 ± 0.09
UACAAGCAAUAUUACGUCCA | -0.297 ± 0.096 | -1.06 ± 0.086
CGACAGCAAUAUUACGCUCC | 0.42 ± 0.13 | -1.44 ± 0.12
AUAUAGCAAUAUUACGGGAU | -0.966 ± 0.16 | -2.27 ± 0.16
GCCCAGCAAUAUUACGGGUG | -0.819 ± 0.054 | -1.58 ± 0.048
CGCCAGCAAUAUUACGCACU | -1.47 ± 0.14 | -2.23 ± 0.14
GAACAGCAAUAUUACGCGAG | -1.32 ± 0.11 | -2.2 ± 0.099
AGGAAGCAAUAUUACGAGCU | 0.0249 ± 0.1 | -0.467 ± 0.082
UACAAGCAAUAUUACGCGAC | -1.5 ± 0.22 | -3.51 ± 0.27
UUUGAGCAAUAUUACGCUGG | -2.01 ± 0.14 | -2.04 ± 0.11
UAUUAGCAAUAUUACGGGAA | -1.45 ± 0.31 | -0.606 ± 0.27
UCAUAGCAAUAUUACGAUAA | -0.636 ± 0.19 | -1.71 ± 0.21
CAUAAGCAAUAUUACGGACA | -2.11 ± 0.19 | -3.09 ± 0.25
AUAGAGCAAUAUUACGGAUA | -1.8 ± 0.39 | -2.83 ± 0.31
GAUCAGCAAUAUUACGGAAA | -0.212 ± 0.17 | -1.01 ± 0.16
UACUAGCAAUAUUACGGAAC | -3.03 ± 0.32 | -3.78 ± 0.34
UUGCAGCAAUAUUACGGUUU | -0.603 ± 0.085 | -1.37 ± 0.085
AUUUAGCAAUAUUACGUUAA | -2.56 ± 0.34 | -2.52 ± 0.27
